{"source": "patent US20010039258A1", "about": "“Active agent transport systems” (Emisphere Technologies, Inc., priority 1990, published 2001)", "key": {"[1]": {"assay": "DSC of rhGh, effect of ionic strength", "type": "physicochemical", "conditions": "pH 7.5"}, "[2]": {"assay": "DSC of rhGh, effect of GuHCl", "type": "physicochemical", "conditions": "pH 7.5", "method": "(§1) Scanning calorimetry was performed using 5 mg 0.83 mM porcine insulin (MW 6,000) per mL in 50 mM phosphate buffer, pH 7.5. All thermograms were performed on a Microcal MC-2 scanning calorimeter equipped with the DA2 data acquisition system operated in the upscale mode at 1° C./min (up to 90° C.), and data points were collected at 20 second intervals. All scans were initiated at least 20 degrees below the observed transitions for the active agent. All thermograms were corrected for baseline subtraction and normalized for the concentration of macromolecule. According to the methods of the Johns Hopkins Biocalorimetry Center, See, for example, Ramsay et al. Biochemistry (1990) 29:8677-8693; Schon et al. Biochemistry (1989) 28:5019-5024 (1990) 29: 781-788.\nAn initial scan of rhGh was performed at 10 mg/mL in the absence of GuHCl (0.33 mM assuming 20,000 molecular weight). Subsequently, the concentration of rhGh was lowered to 5 mg/mL (0.17 mM) in 50 mM phosphate buffer, pH 7.5 containing varying concentrations of GuHCl. Each subsequent thermogram was corrected by background subtraction of a 0.5 M guanidine-phosphate buffer solution. The thermograms were corrected by subtraction of a 0.5M NaCl-phosphate buffer blank. Scans were performed according to the procedure of Example 9."}, "[3]": {"assay": "DSC of rhGh, effect of pH", "type": "physicochemical", "conditions": "pH 7.5 (10 mg/mL)"}, "[4]": {"assay": "In vivo rhGH in rats, subcutaneous, with delivery agents", "set-up": "species or system Sprague-Dawley rats", "conditions": "rat; no delivery agent (Example 43A)", "method": "(§2) The delivery agents were reconstituted with distilled water and adjusted to pH 7.2-8.0 with either aqueous hydrochloric acid or aqueous sodium hydroxide. A stock solution of rhGH was prepared by mixing rhGH, D-mannitol and glycine and dissolving this mixture in 2% glycerol/water. The stock solution was then added to the delivery agent solution. Several delivery agent to active agent ratios were studied.\nMale Sprague-Dawley rats weighing 200-250 g were fasted for 24 hours and administered ketamine (44 mg/kg) and chlorpromazine (1.5 mg/kg) 15 minutes prior to dosing. The rats were administered one of the dosing solutions described above by subcutaneous injection, intranasal instillation, or sublingual instillation. Blood samples were collected serially from the tail artery for serum calcium concentration determination or serum rhGH concentrations. The dose of rhGH administered in these experiments was 0.1 mg/kg.\nSerum rhGH concentrations were quantified by an rhGH enzyme immunoassay test kit.\nrhGH (1 mg/kg) was administered by oral gavage to a rat, and delivery was evaluated according to the procedure of Example 43."}, "[5]": {"assay": "DSC of rhGh, effect of pH", "type": "physicochemical", "method": "as §1\n5 mg/mL rhGh were dissolved in buffer (0.17 mM in 50 mM phosphate buffer, assuming a molecular weight of 20,000). The pH of the solution was adjusted to the desired value, and all curves were corrected by baseline subtraction.\nThe effect of pH on structure was assessed by DSC according to the procedure of Example 9 where individual solutions were prepared in phosphate buffer ranging in pH value from 2.0 to 6.0."}, "[6]": {"assay": "In vivo delivery of rhGH in rats, sublingual, intranasal, oral", "conditions": "rat, no carrier, drug dose 6 mg/kg", "method": "Dosing compositions were prepared by mixing the modified amino acids and recombinant human growth hormone (rhGH) as listed in Table 16 below in a phosphate buffer solution at a pH of about 7-8.\nRats were administered the dosing composition by sublingual or intranasal administration. Delivery was evaluated by using an ELISA assay for rhGH from Medix Biotech, Inc. For intracolonic administration, a sample was prepared and dosed to fasted rats at 25 mg/kg of carrier in a buffered solution containing propylene glycol (0-50%) and 1 mg/kg rhGH.\nrhGH ([…]) was administered by oral gavage to a rat, and delivery was evaluated according to the procedure of Example 41A."}, "serum calcium": {"test_system": "serum calcium", "assay": "In vivo salmon calcitonin in rats, subcutaneous, with delivery agents", "set-up": "species or system Sprague-Dawley rats", "conditions": "sCT 0.2 μg/kg, no delivery agent (Example 55A)", "method": "as §2, with “sCT” for “rhGH”, “by” for “by mixing rhGH, D-mannitol and glycine and”, “sCT” for “this mixture”, “citric acid (0.085N).” for “2% glycerol/water.”, “Several different” for “Several”\nMale Sprague-Dawley rats weighing 200-250 g were fasted for 24 hours and administered ketamine (44 mg/kg) and chlorpromazine (1.5 mg/kg) 15 minutes prior to dosing. The rats were administered one of the dosing solutions described above by subcutaneous injection. Blood samples were collected serially from the tail artery for serum calcium concentration.\nSerum calcium concentrations were quantified by the o-cresolphthalein complexone method (Sigma) using a UV/VIS spectrophotometer (Perkin Elmer).\nSalmon calcitonin was administered by oral gavage to rats, and delivery was evaluated according to the Procedure of Example 55."}}, "note": "Bridge positions count the residues as written; N and C are the ends. Ends that are not written are not given here."}
{"substance": "rhGh: recombinant human growth hormone", "values": [{"measurement": "Tm (Cp, max)", "setting": "[1]; 0.0 M NaCl", "value": 75.2, "unit": "°C"}, {"measurement": "ΔH°", "setting": "[1]; 0.0 M NaCl", "value": 191.0, "unit": "kcal/mol"}, {"measurement": "Tm (Cp, max)", "setting": "[1]; 0.5 M NaCl", "value": 75.8, "unit": "°C"}, {"measurement": "ΔH°", "setting": "[1]; 0.5 M NaCl", "value": 89.7, "unit": "kcal/mol"}, {"measurement": "ΔH°", "setting": "[1]; 1.0 M NaCl", "value": 50.5, "unit": "kcal/mol"}, {"measurement": "Tm (Cp, max)", "setting": "[1]; 10.0 M NaCl", "value": 76.5, "unit": "°C"}, {"measurement": "DOMAIN A Tm (Cp, max)", "setting": "[2]; 0.5 M GuHCl", "value": 71.5, "unit": "°C"}, {"measurement": "DOMAIN B Tm (Cp, max)", "setting": "[2]; 0.5 M GuHCl", "value": "not defined,"}, {"measurement": "ΔH°", "setting": "[2]; 0.5 M GuHCl", "value": 48, "unit": "kcal/mol"}, {"measurement": "DOMAIN A Tm (Cp, max)", "setting": "[2]; 1.0 M GuHCl", "value": 70.9, "unit": "°C"}, {"measurement": "DOMAIN B Tm (Cp, max)", "setting": "[2]; 1.0 M GuHCl", "value": "absent"}, {"measurement": "ΔH°", "setting": "[2]; 1.0 M GuHCl", "value": 109, "unit": "kcal/mol"}, {"measurement": "DOMAIN A Tm (Cp, max)", "setting": "[2]; 1.5 M GuHCl", "value": 69.7, "unit": "°C"}, {"measurement": "DOMAIN B Tm (Cp, max)", "setting": "[2]; 1.5 M GuHCl", "value": "absent"}, {"measurement": "ΔH°", "setting": "[2]; 1.5 M GuHCl", "value": 12, "unit": "kcal/mol"}, {"measurement": "DOMAIN A Tm (Cp, max)", "setting": "[2]; 2.0 M GuHCl", "value": 70.0, "unit": "°C"}, {"measurement": "DOMAIN B Tm (Cp, max)", "setting": "[2]; 2.0 M GuHCl", "value": "absent"}, {"measurement": "ΔH°", "setting": "[2]; 2.0 M GuHCl", "value": 58, "unit": "kcal/mol"}, {"measurement": "DOMAIN A Tm (Cp, max)", "setting": "[2]; 2.5 M GuHCl", "value": 70.7, "unit": "°C"}, {"measurement": "DOMAIN B Tm (Cp, max)", "setting": "[2]; 2.5 M GuHCl", "value": "absent"}, {"measurement": "ΔH°", "setting": "[2]; 2.5 M GuHCl", "value": 99, "unit": "kcal/mol"}, {"measurement": "DOMAIN A Tm (Cp, max)", "setting": "[2]; no GuHCl, rhGh 10 mg/mL", "value": 72.6, "unit": "°C"}, {"measurement": "DOMAIN B Tm (Cp, max)", "setting": "[2]; no GuHCl, rhGh 10 mg/mL", "value": 74.3, "unit": "°C"}, {"measurement": "ΔH°", "setting": "[2]; no GuHCl, rhGh 10 mg/mL", "value": 632, "unit": "kcal/mol"}, {"measurement": "Tm (Cp, max), transition a)", "setting": "[3]", "value": "a) 73 °C"}, {"measurement": "Tm (Cp, max), transition b)", "setting": "[3]", "value": "b) 75 °C"}, {"measurement": "ΔH°, (a) + (b)", "setting": "[3]", "value": "(a) + (b) = 632 kcal/mol"}, {"measurement": "Peak Serum [rhGH]", "setting": "[4]", "value": "4 ± 2", "unit": "ng/mL"}, {"measurement": "Tm (Cp, max)", "setting": "[5]; pH 2.0", "value": "no transition observed"}, {"measurement": "ΔH°", "setting": "[5]; pH 2.0", "value": "no transition observed"}, {"measurement": "Tm (Cp, max)", "setting": "[5]; pH 3.0", "value": "no transition observed"}, {"measurement": "ΔH°", "setting": "[5]; pH 3.0", "value": "no transition observed"}, {"measurement": "Tm (Cp, max)", "setting": "[5]; pH 3.5", "value": "no transition observed"}, {"measurement": "ΔH°", "setting": "[5]; pH 3.5", "value": "no transition observed"}, {"measurement": "Tm (Cp, max)", "setting": "[5]; pH 4.0", "value": "≈73.0 °C"}, {"measurement": "ΔH°", "setting": "[5]; pH 4.0", "value": "broad transition"}, {"measurement": "Tm (Cp, max)", "setting": "[5]; pH 5.0", "value": 75.0, "unit": "°C"}, {"measurement": "ΔH°", "setting": "[5]; pH 5.0", "value": 161, "unit": "kcal/mol"}, {"measurement": "Tm (Cp, max)", "setting": "[5]; pH 6.0", "value": 75.2, "unit": "°C"}, {"measurement": "ΔH°", "setting": "[5]; pH 6.0", "value": 191, "unit": "kcal/mol"}, {"measurement": "Mean Peak Serum Levels of rhGH", "setting": "[6]", "value": "<10 ± 10", "unit": "ng/mL"}]}
{"substance": "sCT: Salmon Calcitonin (CSNLSTCVLGKLSQELHKLQTYPRTNTGSGTP-NH2; disulfide 1-7; ends not checked)", "values": [{"measurement": "Percent Decrease in Serum Calcium", "setting": "serum calcium", "value": "17 ± 2", "unit": "%"}]}
